Results as given in the supplement of paper PMC10567573.

B1: PLK2 (parent)
chain: YAELGQCSVFPATDAPEQFISQVT
B2: ADD1 (parent)
chain: GEGTGSPPKWQIGEQEFEALMRML

Variants of: B1
Assay: protein stability index of a GFP-peptide fusion (GPS, HEK-293T) (PSI 1-6); higher = more stable
Settings: c terminus: a fixed tail appended
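Further: lentivirally expressed fusions sorted by FACS into six bins by GFP to DsRed ratio, PSI derived from sequencing read proportions per bin multiplied by bin number.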

Compared with YAELGQCSVFPATDAPEQFISQVA [T24A], YAELGQCSVFPATDAPEQFISQVN [T24N] is higher in protein stability index: 1.59 for the first, 2.92 for the second.

First: YAELGQCSVFPATDAPEQFISQVQ [T24Q]
Second: YAELGQCSVFPATDAPEQFISQVP [T24P]
The protein stability index of the first is higher: 2.68 for the first, 2.08 for the second.

First: YAELGQCSVFPATDAPEQFISQVE [T24E]
Second: YAELGQCSVFPATDAPEQFISQVR [T24R]
The protein stability index of the first is higher: 2.33 for the first, 2.14 for the second.

First: YAELGQCSVFPATDAPEQFISQVV [T24V]
Second: YAELGQCSVFPATDAPEQFISQVG [T24G]
The protein stability index of the first is lower: 1.9 for the first, 2.31 for the second.

Compared with YAELGQCSVFPATDAPEQFISQVM [T24M], YAELGQCSVFPATDAPEQFISQVL [T24L] is higher in protein stability index: 1.73 for the first, 2.21 for the second.

Compared with YAELGQCSVFPATDAPEQFISQVS [T24S], YAELGQCSVFPATDAPEQFISQVI [T24I] is higher in protein stability index: 2.1 for the first, 2.48 for the second.

First: YAELGQCSVFPATDAPEQFISQVH [T24H]
Second: YAELGQCSVFPATDAPEQFISQVK [T24K]
The protein stability index of the first is lower: 2.57 for the first, 2.6 for the second.

Compared with YAELGQCSVFPATDAPEQFISQVF [T24F], YAELGQCSVFPATDAPEQFISQVC [T24C] is lower in protein stability index: 1.62 for the first, 1.31 for the second.

First: YAELGQCSVFPATDAPEQFISQVD [T24D]
Second: YAELGQCSVFPATDAPEQFISQVY [T24Y]
The protein stability index of the first is higher: 2.64 for the first, 2 for the second.

Compared with YAELGQCSVFPATDAPEQFIRQVT [S21R], YAELGQCSVFPATDAPEQFIQQVT [S21Q] is higher in protein stability index: 1.76 for the first, 1.89 for the second.

Going from YAELGQCSVFPATDAPEQFINQVT [S21N] to YAELGQCSVFPATDAPEQFIYQVT [S21Y], the protein stability index falls from 2.14 to 1.57.

Going from YAELGQCSVFPATDAPEQFIVQVT [S21V] to YAELGQCSVFPATDAPEQFIPQVT [S21P], the protein stability index rises from 1.9 to 2.41.

Going from YAELGQCSVFPATDAPEQFITQVT [S21T] to YAELGQCSVFPATDAPEQFIMQVT [S21M], the protein stability index rises from 2.49 to 3.09.

Compared with YAELGQCSVFPATDAPEQFIWQVT [S21W], YAELGQCSVFPATDAPEQFISQKT [V23K] is lower in protein stability index: 2.92 for the first, 2.38 for the second.

First: YAELGQCSVFPATDAPEQFISQRT [V23R]
Second: YAELGQCSVFPATDAPEQFISQHT [V23H]
The protein stability index of the first is higher: 2.54 for the first, 1.98 for the second.

Going from YAELGQCSVFPATDAPEQFISQQT [V23Q] to YAELGQCSVFPATDAPEQFISQDT [V23D], the protein stability index rises from 2.56 to 3.06.

Going from YAELGQCSVFPATDAPEQFISQTT [V23T] to YAELGQCSVFPATDAPEQFISQAT [V23A], the protein stability index falls from 2.48 to 2.39.

Compared with YAELGQCSVFPATDAPEQFISQCT [V23C], YAELGQCSVFPATDAPEQFISQNT [V23N] is lower in protein stability index: 2.95 for the first, 2.58 for the second.

Going from YAELGQCSVFPATDAPEQFISQLT [V23L] to YAELGQCSVFPATDAPEQFISQST [V23S], the protein stability index rises from 1.91 to 2.96.

First: YAELGQCSVFPATDAPEQFISQMT [V23M]
Second: YAELGQCSVFPATDAPEQFISQYT [V23Y]
The protein stability index of the first is higher: 2.29 for the first, 1.98 for the second.

First: YAELGQCSVFPATDAPEQFISQET [V23E]
Second: YAELGQCSVFPATDAPEQFISQPT [V23P]
The protein stability index of the first is lower: 2.75 for the first, 2.81 for the second.

First: YAELGQCSVFPATDAPEQFISQIT [V23I]
Second: YAELGQCSVFPATDAPEQFISQGT [V23G]
The protein stability index of the first is lower: 1.74 for the first, 2.52 for the second.

First: YAELGQCSVFPATDAPEQFISQFT [V23F]
Second: YAELGQCSVFPATDAPEQFISQWT [V23W]
The protein stability index of the first is lower: 1.89 for the first, 2.39 for the second.

Going from YAELGQCSVFPATDAPEQFISYVT [Q22Y] to YAELGQCSVFPATDAPEQFISRVT [Q22R], the protein stability index rises from 1.86 to 2.08.

First: YAELGQCSVFPATDAPEQFISIVT [Q22I]
Second: YAELGQCSVFPATDAPEQFISNVT [Q22N]
The protein stability index of the first is lower: 1.52 for the first, 2.31 for the second.

First: YAELGQCSVFPATDAPEQFISSVT [Q22S]
Second: YAELGQCSVFPATDAPEQFISWVT [Q22W]
The protein stability index of the first is lower: 2.06 for the first, 2.09 for the second.

Going from YAELGQCSVFPATDAPEQFISLVT [Q22L] to YAELGQCSVFPATDAPEQFISCVT [Q22C], the protein stability index rises from 1.7 to 1.72.

Compared with YAELGQCSVFPATDAPEQFISFVT [Q22F], YAELGQCSVFPATDAPEQFISGVT [Q22G] is higher in protein stability index: 1.73 for the first, 2.36 for the second.

Going from YAELGQCSVFPATDAPEQFISEVT [Q22E] to YAELGQCSVFPATDAPEQFISVVT [Q22V], the protein stability index falls from 3.2 to 2.81.

Compared with YAELGQCSVFPATDAPEQFISAVT [Q22A], YAELGQCSVFPATDAPEQFISDVT [Q22D] is higher in protein stability index: 1.94 for the first, 2.75 for the second.

Going from YAELGQCSVFPATDAPEQFISHVT [Q22H] to YAELGQCSVFPATDAPEQFISKVT [Q22K], the protein stability index falls from 2.27 to 1.77.

Compared with YAELGQCSVFPATDAPEQFISPVT [Q22P], YAELGQCSVFPATDAPEQFISTVT [Q22T] is lower in protein stability index: 2.47 for the first, 2.1 for the second.

Variant YAELGQCSVFPATDAPEQFISMVT [Q22M] has a protein stability index of 1.73.

Variants of: B2
Assay: as above
Settings: c terminus: a fixed tail appended

Compared with GEGTGSPPKWQIGEQEFEALMGML [R22G], GEGTGSPPKWQIGEQEFEALMCML [R22C] is lower in protein stability index: 3.09 for the first, 2.21 for the second.

Compared with GEGTGSPPKWQIGEQEFEALMDML [R22D], GEGTGSPPKWQIGEQEFEALMQML [R22Q] is lower in protein stability index: 3.61 for the first, 3.3 for the second.

Compared with GEGTGSPPKWQIGEQEFEALMAML [R22A], GEGTGSPPKWQIGEQEFEALMTML [R22T] is lower in protein stability index: 3.18 for the first, 3 for the second.

First: GEGTNSPPKWQIGEQEFEALMRML [G5N]
Second: GEGTESPPKWQIGEQEFEALMRML [G5E]
The protein stability index of the first is higher: 3.28 for the first, 3.21 for the second.

Going from GEGTRSPPKWQIGEQEFEALMRML [G5R] to GEGTLSPPKWQIGEQEFEALMRML [G5L], the protein stability index rises from 2.77 to 2.9.

Compared with GEGTSSPPKWQIGEQEFEALMRML [G5S], GEGTCSPPKWQIGEQEFEALMRML [G5C] is lower in protein stability index: 3.01 for the first, 2.86 for the second.

First: GEGEGSPPKWQIGEQEFEALMRML [T4E]
Second: GEGWGSPPKWQIGEQEFEALMRML [T4W]
The protein stability index of the first is higher: 3.51 for the first, 2.36 for the second.

Going from GEGYGSPPKWQIGEQEFEALMRML [T4Y] to GEGSGSPPKWQIGEQEFEALMRML [T4S], the protein stability index falls from 3.26 to 3.08.

First: GEGTGSPPKWQIGEQEEEALMRML [F17E]
Second: GEGTGSPPKWQIGEQEFECLMRML [A19C]
The protein stability index of the first is higher: 4.52 for the first, 3.43 for the second.

Compared with GEGTGSPPKWQIGEQEFEFLMRML [A19F], GEGTGSPPKWQIGEQEFERLMRML [A19R] is higher in protein stability index: 2.67 for the first, 3.59 for the second.

Compared with GEGTGSPPKWQIGEQEFEGLMRML [A19G], GEGTGSPPKWQIGEQEFEMLMRML [A19M] is lower in protein stability index: 3.22 for the first, 2.7 for the second.

First: GEGTGSPPKWQIGEQEFEVLMRML [A19V]
Second: GEGTGSPPKWQIGEQEFEDLMRML [A19D]
The protein stability index of the first is lower: 2.97 for the first, 4.11 for the second.

Compared with GEGTGSPPKWQIGEQEFEALMRMF [L24F], GEGTGSPPKWQIGEQEFEALMRMD [L24D] is higher in protein stability index: 3.42 for the first, 4.89 for the second.

Compared with GEGTGSPPKWQIGEQEFEALMRMN [L24N], GEGTGSPPKWQIGEQEFEALMRMC [L24C] is lower in protein stability index: 4.13 for the first, 3.52 for the second.

For GEGTGSPPKWQIGEQEFEALMRMY [L24Y], the protein stability index was 2.68.
